Assay results taken from patent publication US20240317882A1 (WUHAN BIO RAID BIOTECH, published 2024).

T1: extracellular domain of CD99 (UniProt P14209 23-122, limits assumed)
T1 construct: extracellular domain; also called antigen CD99; purified recombinant extracellular domain of CD99
T1 sequence (looked up): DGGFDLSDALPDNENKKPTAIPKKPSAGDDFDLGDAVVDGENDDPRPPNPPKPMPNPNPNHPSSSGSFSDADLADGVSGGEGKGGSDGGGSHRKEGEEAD


target: T1, extracellular domain of CD99; assay: surface plasmon resonance (BiacoreX), soluble scFv against extracellular domain of CD99
Source text: The nucleotide sequences shown in SEQ ID NO: 2, SEQ ID NO: 4, SEQ ID NO: 6, SEQ ID NO: 8 and SEQ ID NO: 10 were artificially synthesized with the cleavage site Nde I and Xho I each added to either terminal. The synthetic nucleotide sequences were subjected to dual-enzyme digestion, and then ligated to a cloning vector PMD-19T subjected to the same digestion process as above. The ligated product was transformed into the competent cells, and then the positive clones were screened and sequenced. The plasmid was extracted from the positive clone with a correct sequence, and then subjected to dual-enzyme digestion by using Nde I and Xho I. Meanwhile, an expression vector PET-28b was also subjected to the same dual-enzyme digestion as above. The nucleotide fragment was ligated with the vector fragment, with which E. coli was transformed. The positive clones were screened and sequenced. The positive clone with correct sequence was selected for extracting the plasmid.

Binder	Kd
C6 anti-CD99 scFv (soluble) (scFv, Selected from a CD99 phage antibody library; Expressed as soluble scFv in E. coli BL21 (DE3) from PET-28b (Nde I / Xho I) and purified) scFv: EVQLQQSGAELVKPGASVKLSCTASGFNIKDTYIHWVKRRPEQGLEWIGRIDPANGNTKYDPKFQGKATITADTSSNTAYLQLSSLTSEDTAVYYCARRGLDYWGQGTLVTVSAGGGGSGGGGSGGGGSDVVMTQTPLTLSVTIGQPASISCKSSQSLLDGDGKTYLNWLLQRPGQSPKRLIYLVSKLDSGVPDRFTGSGSGTDFTLKISRVEAEDLGVYYCWQGTHFPRTFGGGTKLEIK	450 nM
C2 anti-CD99 scFv (soluble) (scFv, Prior-art scFv; Expressed as soluble scFv in E. coli BL21 (DE3) from PET-28b; also called C2 in CN 110590960 A) scFv: EVQLQQSGAELVKPGASVKLSCTASGFNIKDTYIHWVKRRPEQGLEWIGRIDPANGNTKYDPKFQGKATITADTSSNTAYLQLSSLTSEDTAVYYCARRGGVDWGQGTLVTVSAGGGGSGGGGSGGGGSDVVMTQTPLTLSVTIGQPASISCKSSQSLLDGDGKTYLNWLLQRPGQSPKRLIYLVSKLDSGVPDRFTGSGSGTDFTLKISRVEAEDLGVYYCWQGTHFPRTFGGGTKLEIK	480 nM
C3 anti-CD99 scFv (soluble) (scFv, Prior-art scFv; Expressed as soluble scFv in E. coli BL21 (DE3) from PET-28b; also called C3 in CN 110590960 A) scFv: QVQLVQSGAEVKKPGASVKVSCKASGFNIKDTYIHWVRQAPGQGLEWMGRIDPANGNTKYDPKFQGRVTMTRDTSISTAYMELSRLRSDDTAVYYCARRGGVDWGQGTLVTVSSGGGGSGGGGSGGGGSDIVMTQTPLSLSVTPGQPASISCKSSQSLLDGDGKTYLNWLLQKPGQSPQRLIYLVSKLDSGVPDRFSGSGSGTDFTLKISRVEAEDVGVYYCWQGTHFPRTFGQGTKLEIK	510 nM
C4 anti-CD99 scFv (soluble) (scFv, Prior-art scFv; Expressed as soluble scFv in E. coli BL21 (DE3) from PET-28b) scFv: EVQLQQSGAELVKPGASVKLSCTASGFDIKDTYIHWVKQRPEQGLEWIGRIDPANGDTRYDPEFQGKASLTADTSSNTAYLQFSNLTSEDTAVYYCARRGGLSWGQGTTLTVSSGGGGSGGGGSGGGGSDIQMTQSPASLSASVGETVTITCRASGNIHNYLAWYQQKQGKSPQLLVYNAKTLADGVPSRFSGSGSGTQYSLKINSLQPEDFGSYYCQHFWSTPWTFGGGTKLEIK	600 nM
